Molecular target: T1, CebR-His6 (Streptomyces scabies 87-22, UniProt C9Z452 1-352)
T1 sequence: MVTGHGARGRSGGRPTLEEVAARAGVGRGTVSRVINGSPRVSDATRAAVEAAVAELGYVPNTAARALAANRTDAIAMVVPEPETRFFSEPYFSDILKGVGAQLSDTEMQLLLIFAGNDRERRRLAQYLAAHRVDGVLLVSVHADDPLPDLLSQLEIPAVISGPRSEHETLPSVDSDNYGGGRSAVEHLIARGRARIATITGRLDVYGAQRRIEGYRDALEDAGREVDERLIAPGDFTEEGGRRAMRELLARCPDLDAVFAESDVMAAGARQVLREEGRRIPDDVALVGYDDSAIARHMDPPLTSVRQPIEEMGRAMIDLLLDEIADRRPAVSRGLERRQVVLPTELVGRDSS
Experiment: EMSA

B1: cbstxtR-A probe (dsDNA)
DNA 1: TGTCAATAAGCGGGAGCGCTCCCACAGCGCTCTC
DNA 2: GAGAGCGCTGTGGGAGCGCTCCCGCTTATTGACA
  binding result: binds

B2: cbstxtB probe (dsDNA)
DNA 1: CTCCCCCAGGGGGAGCGCTCCCACTGCGCTGTA
DNA 2: TACAGCGCAGTGGGAGCGCTCCCCCTGGGGGAG
  binding result: binds

Source: publication PMC4358012
